Measured values from patent US20260109745A1.

Key:
[1] = biological target: MUC5AC (NPC-1 antigen, tumor variant) as expressed by human colorectal tumor cell lines (human) (UniProt P98088); test: flow cytometry on LS174T colorectal tumor cells
[2] = biological target: MUC5AC (NPC-1 antigen, tumor variant) as expressed by human colorectal tumor cell lines (human) (UniProt P98088); test: flow cytometry on SW480 colorectal tumor cells
[3] = biological target: MUC5AC (NPC-1 antigen, tumor variant) as expressed on human pancreatic tumor cell lines (human) (UniProt P98088); test: flow cytometry on CFPAC-1 pancreatic tumor cells
[4] = biological target: MUC5AC (NPC-1 antigen, tumor variant) as expressed by human colorectal tumor cell lines (human) (UniProt P98088); test: flow cytometry on Colo-205 colorectal tumor cells
[5] = biological target: MUC5AC (NPC-1 antigen, tumor variant) as expressed on human pancreatic tumor cell lines (human) (UniProt P98088); test: immunofluorescence on fixed, permeabilized CFPAC-1 cells, 2 ug/ml

MUC5AC (NPC-1 antigen, tumor variant) as expressed by human colorectal tumor cell lines (human), sequence (P98088 other isoform, or with tags, fused parts or gaps mutant limits assumed): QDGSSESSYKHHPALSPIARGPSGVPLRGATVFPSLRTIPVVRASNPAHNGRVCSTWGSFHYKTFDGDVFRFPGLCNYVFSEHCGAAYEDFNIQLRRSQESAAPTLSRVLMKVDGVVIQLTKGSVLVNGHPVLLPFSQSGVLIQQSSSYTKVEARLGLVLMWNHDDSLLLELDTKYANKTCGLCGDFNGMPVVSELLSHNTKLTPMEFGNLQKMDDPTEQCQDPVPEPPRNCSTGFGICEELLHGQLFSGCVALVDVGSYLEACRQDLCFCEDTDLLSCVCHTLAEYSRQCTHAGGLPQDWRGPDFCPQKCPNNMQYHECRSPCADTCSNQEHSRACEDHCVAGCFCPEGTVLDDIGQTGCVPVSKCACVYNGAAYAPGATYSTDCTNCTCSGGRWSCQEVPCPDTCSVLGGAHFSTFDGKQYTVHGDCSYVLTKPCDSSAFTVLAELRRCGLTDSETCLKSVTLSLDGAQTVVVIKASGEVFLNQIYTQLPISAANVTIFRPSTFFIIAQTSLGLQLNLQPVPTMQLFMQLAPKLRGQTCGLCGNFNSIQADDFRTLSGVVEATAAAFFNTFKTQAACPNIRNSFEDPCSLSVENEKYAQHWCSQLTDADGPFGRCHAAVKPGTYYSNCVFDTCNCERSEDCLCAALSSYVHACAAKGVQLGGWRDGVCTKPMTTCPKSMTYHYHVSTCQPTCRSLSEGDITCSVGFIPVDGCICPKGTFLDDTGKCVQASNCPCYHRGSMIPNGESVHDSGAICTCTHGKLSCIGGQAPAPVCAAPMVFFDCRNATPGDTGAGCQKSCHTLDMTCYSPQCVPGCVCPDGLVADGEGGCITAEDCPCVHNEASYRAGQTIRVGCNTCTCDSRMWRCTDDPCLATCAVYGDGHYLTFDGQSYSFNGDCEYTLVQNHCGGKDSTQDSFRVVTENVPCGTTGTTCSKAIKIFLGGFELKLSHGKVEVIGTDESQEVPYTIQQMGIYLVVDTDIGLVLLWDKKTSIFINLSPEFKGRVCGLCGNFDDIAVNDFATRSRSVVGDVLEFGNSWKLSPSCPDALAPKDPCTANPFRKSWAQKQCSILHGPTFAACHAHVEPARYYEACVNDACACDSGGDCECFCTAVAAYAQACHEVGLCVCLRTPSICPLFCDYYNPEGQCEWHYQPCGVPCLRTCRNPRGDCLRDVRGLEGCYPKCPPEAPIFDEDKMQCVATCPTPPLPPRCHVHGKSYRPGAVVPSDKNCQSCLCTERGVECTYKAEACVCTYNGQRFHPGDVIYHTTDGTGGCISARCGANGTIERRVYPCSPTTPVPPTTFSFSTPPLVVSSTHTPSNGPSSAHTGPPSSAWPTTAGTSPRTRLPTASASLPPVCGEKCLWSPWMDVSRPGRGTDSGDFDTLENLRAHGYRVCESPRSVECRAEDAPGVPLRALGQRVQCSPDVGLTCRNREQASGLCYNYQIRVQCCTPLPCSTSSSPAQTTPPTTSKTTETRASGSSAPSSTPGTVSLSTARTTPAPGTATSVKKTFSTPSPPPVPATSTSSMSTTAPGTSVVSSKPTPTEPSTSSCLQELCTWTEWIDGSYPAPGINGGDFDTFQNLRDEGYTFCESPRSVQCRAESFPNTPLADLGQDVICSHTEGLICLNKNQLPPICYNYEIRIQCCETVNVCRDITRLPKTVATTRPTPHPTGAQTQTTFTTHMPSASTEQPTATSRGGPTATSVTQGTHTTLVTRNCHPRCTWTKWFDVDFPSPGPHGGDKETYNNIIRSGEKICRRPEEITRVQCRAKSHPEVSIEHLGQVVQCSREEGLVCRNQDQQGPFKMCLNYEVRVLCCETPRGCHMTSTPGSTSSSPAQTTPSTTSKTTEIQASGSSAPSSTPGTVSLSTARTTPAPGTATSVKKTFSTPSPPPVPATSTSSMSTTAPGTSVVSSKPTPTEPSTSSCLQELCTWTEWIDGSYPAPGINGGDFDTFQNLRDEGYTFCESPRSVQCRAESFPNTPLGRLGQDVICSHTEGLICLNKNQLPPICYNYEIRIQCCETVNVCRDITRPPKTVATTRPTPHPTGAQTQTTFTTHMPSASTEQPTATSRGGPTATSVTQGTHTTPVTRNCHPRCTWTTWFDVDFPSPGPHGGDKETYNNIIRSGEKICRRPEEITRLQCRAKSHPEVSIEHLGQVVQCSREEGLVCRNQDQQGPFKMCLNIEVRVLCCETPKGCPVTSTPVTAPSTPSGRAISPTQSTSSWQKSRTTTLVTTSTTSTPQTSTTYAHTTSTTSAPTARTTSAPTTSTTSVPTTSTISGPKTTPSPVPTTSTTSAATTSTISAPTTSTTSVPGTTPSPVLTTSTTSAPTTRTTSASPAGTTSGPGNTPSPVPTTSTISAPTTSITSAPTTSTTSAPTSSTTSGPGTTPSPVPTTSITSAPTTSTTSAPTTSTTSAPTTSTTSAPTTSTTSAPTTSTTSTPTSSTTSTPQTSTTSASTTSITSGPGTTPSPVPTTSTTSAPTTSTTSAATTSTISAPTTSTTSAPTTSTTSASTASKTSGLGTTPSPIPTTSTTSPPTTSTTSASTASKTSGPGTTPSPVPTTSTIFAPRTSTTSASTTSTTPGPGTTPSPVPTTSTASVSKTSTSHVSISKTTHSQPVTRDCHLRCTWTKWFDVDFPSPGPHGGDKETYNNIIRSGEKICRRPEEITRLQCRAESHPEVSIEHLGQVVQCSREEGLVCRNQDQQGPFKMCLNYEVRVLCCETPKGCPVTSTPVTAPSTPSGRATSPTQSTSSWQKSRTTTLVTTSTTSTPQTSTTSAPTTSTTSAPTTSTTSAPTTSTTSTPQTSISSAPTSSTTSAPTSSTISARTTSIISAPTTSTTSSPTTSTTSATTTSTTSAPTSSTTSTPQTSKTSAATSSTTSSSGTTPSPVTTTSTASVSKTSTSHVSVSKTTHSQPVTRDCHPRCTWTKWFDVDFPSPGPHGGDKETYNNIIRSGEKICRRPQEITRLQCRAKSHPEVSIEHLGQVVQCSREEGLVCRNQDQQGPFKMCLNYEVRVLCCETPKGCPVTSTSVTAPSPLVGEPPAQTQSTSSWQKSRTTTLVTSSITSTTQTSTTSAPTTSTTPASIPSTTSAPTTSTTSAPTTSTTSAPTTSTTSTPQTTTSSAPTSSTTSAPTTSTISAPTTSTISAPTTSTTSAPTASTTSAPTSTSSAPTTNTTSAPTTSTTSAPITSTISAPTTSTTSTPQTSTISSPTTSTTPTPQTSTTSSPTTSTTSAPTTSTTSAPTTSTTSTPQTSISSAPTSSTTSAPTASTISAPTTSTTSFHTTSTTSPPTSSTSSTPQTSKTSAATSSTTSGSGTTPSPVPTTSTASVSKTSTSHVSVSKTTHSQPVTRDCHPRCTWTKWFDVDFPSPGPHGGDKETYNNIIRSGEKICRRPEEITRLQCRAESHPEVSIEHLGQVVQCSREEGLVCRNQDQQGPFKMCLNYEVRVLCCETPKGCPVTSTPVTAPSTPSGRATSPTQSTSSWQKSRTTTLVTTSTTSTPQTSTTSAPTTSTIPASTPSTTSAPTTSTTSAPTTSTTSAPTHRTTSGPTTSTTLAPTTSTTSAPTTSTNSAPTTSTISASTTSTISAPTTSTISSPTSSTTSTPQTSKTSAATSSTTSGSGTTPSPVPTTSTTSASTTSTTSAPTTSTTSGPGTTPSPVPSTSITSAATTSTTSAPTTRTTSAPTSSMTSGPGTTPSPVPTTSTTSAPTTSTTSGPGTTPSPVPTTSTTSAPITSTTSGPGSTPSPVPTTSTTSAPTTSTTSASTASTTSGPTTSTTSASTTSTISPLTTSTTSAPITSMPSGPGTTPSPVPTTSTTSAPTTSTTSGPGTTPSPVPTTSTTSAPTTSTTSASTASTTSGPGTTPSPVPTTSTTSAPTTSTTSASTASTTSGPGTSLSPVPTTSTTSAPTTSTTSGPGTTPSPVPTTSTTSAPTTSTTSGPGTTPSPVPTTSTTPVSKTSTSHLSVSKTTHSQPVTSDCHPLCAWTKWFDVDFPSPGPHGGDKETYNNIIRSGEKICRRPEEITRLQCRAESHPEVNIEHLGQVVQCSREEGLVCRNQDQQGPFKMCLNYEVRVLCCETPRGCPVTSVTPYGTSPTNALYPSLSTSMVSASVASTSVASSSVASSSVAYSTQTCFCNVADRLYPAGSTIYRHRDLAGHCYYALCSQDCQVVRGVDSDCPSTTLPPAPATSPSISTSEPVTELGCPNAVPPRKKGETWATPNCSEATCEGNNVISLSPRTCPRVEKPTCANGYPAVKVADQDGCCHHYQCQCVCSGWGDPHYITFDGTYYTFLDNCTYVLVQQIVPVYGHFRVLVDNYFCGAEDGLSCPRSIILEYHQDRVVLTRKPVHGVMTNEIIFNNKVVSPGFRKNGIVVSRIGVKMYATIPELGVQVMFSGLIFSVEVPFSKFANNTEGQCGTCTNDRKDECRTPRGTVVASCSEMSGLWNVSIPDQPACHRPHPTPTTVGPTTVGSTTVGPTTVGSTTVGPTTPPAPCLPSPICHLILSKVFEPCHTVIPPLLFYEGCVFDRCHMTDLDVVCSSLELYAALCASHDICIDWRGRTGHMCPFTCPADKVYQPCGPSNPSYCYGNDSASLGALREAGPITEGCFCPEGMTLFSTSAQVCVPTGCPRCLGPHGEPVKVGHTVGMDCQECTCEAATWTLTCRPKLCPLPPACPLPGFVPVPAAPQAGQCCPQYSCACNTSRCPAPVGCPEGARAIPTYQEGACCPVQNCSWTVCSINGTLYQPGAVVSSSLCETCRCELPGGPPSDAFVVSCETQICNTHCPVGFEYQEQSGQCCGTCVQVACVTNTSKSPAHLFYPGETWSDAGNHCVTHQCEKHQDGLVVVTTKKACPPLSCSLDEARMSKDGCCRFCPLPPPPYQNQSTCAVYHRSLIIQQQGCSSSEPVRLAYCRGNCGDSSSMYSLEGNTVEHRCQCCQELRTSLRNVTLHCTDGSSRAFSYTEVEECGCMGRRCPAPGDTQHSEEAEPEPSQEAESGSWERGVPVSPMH
MUC5AC (NPC-1 antigen, tumor variant) as expressed on human pancreatic tumor cell lines (human), sequence (P98088 other isoform, or with tags, fused parts or gaps mutant limits assumed): as above

| % Cells Stained [1] [%] | % Cells Stained [2] [%] | % Cells Stained [3] [%] | % Cells Stained [4] [%] | % of cells stained [5] [%] | Substance |
| --- | --- | --- | --- | --- | --- |
| 3.85 | 3.38 | 1.79 | 2.33 | – | Isotype control antibody |
| – | – | – | – | 100 | Polyclonal rabbit anti-MUC5AC antibody (H-160) (Santa Cruz Biotechnology Inc.) |
